The values that follow come from publication doi:10.1101/2024.01.09.574928.

Positions count from the first letter of the chain named. Read-outs that look alike come from different tables or passages of the source.

For data set [1], the target named is T1, WDR5 (UniProt P61964 22-334). The experiment in a line: competition FP.
Data set [2] has as its target T1, WDR5. The experiment in a line: SPR.
For data set [3], the target named is WDR5 L240K (UniProt P61964 22-334, L240K). The experiment in a line: fluorescence polarization.
Data set [4] has as its target T1, WDR5. The experiment in a line: fluorescence polarization.
The target of data set [5] is T2, SCAF8-CID (human, UniProt Q9UPN6 1-139).
T2 sequence: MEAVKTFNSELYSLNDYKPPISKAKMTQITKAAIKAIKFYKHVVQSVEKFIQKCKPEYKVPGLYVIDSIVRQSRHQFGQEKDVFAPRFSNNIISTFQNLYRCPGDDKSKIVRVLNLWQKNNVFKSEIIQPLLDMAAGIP
Kind of data set: competition FP.

Data set [6] concerns the target T3, SCAF4-CID (human, UniProt O95104 1-139).
T3 sequence: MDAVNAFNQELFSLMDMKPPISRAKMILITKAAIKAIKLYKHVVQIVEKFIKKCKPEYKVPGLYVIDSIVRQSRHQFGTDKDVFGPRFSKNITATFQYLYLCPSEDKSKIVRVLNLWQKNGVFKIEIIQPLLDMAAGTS
The experiment in a line: competition FP.

Data set [7] concerns the target T2, SCAF8-CID. Kind of data set: SPR.
Data set [8] addresses T3, SCAF4-CID. The experiment in a line: SPR.
Data set [9] addresses T2, SCAF8-CID. The experiment in a line: SPR. The source holds these as a separate data set.
Data set [10] has as its target T3, SCAF4-CID. Kind of data set: competition FP. The source holds these as a separate data set.
The target of data set [11] is T3, SCAF4-CID. The experiment in a line: fluorescence polarization.
Data set [12] addresses T4, SCAF4-CID R21A (human, UniProt O95104 1-139, R23A).
T4 sequence: T3 sequence with R23A
The experiment in a line: fluorescence polarization.

Data set [13] concerns the target T5, SCAF4-CID R112A (human, UniProt O95104 1-139, R112A).
T5 sequence: T3 sequence with R112A
Kind of data set: fluorescence polarization.

For data set [14], the target named is T6, SCAF4-CID R71A (human, UniProt O95104 1-139, R71A).
T6 sequence: T3 sequence with R71A
The experiment in a line: fluorescence polarization.

Data set [15] deals with T2, SCAF8-CID. Kind of data set: competition FP. The source holds these as a separate data set.

The molecule GGGGGCTGGACCCCTCAACT (structured_DNA) [WMiApt-1] gave an IC50 in data set [1] of 0.431 ± 0.134 µM. For the same molecule, the Kd in data set [2] came out at 0.138 ± 0.0867 µM; in data set [4], 0.797 ± 0.0952 µM. Further, in data set [3], the binding result is listed as “binds”.
Take TTAAAGGGGTGGGGAGTCAT (ssDNA) [SRiApt-3]: the figures for the half-inhibitory concentration (IC50) in data set [5] and in data set [6] were 0.291 ± 0.0197 µM and 0.285 ± 0.0266 µM, respectively. Besides, the Kd in [7] turned out to be 0.0699 ± 0.014 µM; in data set [8], 0.0227 ± 0.001 µM.
As to GGGGTGGGGAG (ssDNA) [SRiApt-1 (SCAF4_F3_11nt)], the concentration for half-maximal inhibition (IC50) was determined as 1.5 ± 0.69 µM in [5] and 0.832 ± 0.303 µM in data set [6]. Further, the Kd in data set [9] came to 0.0563 ± 0.00742 µM; in data set [8], 0.0584 ± 0.0058 µM.
Molecule TGGTGGGA (ssDNA) [D1_8nt] returned an IC50 in data set [6] of 1.27 ± 0.864 µM.
In the case of GGACCGGACC (ssDNA) [bivalent WDR5 lead], the half-inhibitory concentration (IC50) in data set [1] stood at 8.5 ± 4.25 µM.
On to GTGGG (ssDNA) [SCAF4_LS (D2_5nt)], for which the dissociation constant Kd in data set [7] turned out to be 0.0764 ± 0.00733 µM; in data set [8] it was 0.14 ± 0.0401 µM; in data set [11], 0.189 ± 0.0401 µM; in [12], 0.416 ± 0.0395 µM; in data set [13] it was 0.672 ± 0.171 µM; in data set [14], 0.786 ± 0.491 µM. Moreover, the values for the IC50 in [10] and in data set [15] were 2.75 ± 0.682 µM and 1.96 ± 0.24 µM, respectively.
As for GGGTGGGA (ssDNA) [F1_8nt], the 50% inhibitory concentration (IC50) in data set [6] was 0.554 ± 0.106 µM. In addition, binding in data set [8] was put at a Kd of 0.0886 ± 0.0151 µM.
Consider CAGGTGGGTTC (ssDNA) [SRiApt-2 (F7_11nt_B)], for which the concentration for half-maximal inhibition (IC50) came to 2.69 ± 1.43 µM in [5] and 0.4 ± 0.143 µM in data set [6]. Also, the dissociation constant (Kd) in data set [7] was determined as 0.0905 ± 0.0258 µM; in data set [8], 0.0738 ± 0.0307 µM.
Regarding AGGTGGGT (ssDNA) [B2_8nt], the IC50 in [6] turned out to be 1.28 ± 0.742 µM. The Kd in data set [8] was found to be 0.297 ± 0.0481 µM.
